Measurements taken from publication doi:10.1101/2025.05.06.652354.

Key:
[1] = target: Clostridioides difficile transferase B component, CDTb(45-876), activated with trypsin (Clostridioides difficile) (UniProt O32739); assay: SDS-PAGE of SDS-resistant oligomers
[2] = target: Clostridioides difficile transferase B component, CDTb(45-876), activated with trypsin (Clostridioides difficile) (UniProt O32739); assay: SEC

Clostridioides difficile transferase B component, CDTb(45-876), activated with trypsin (from UniProt O32739 45-876) (natural protein)
fold oligomer formed with 2.5 M ethanol against water [1]: 7.5 fold
stoichiometry N [2]: 7
